{"source": "patent US20120045437A1", "about": "(BOARD OF REGENTS OF THE UNIVERSITY OF OKLAHOMA, published 2012)", "binders": {"B1": {"name": "Anti-LRP6-1 (antibody, mouse IgG2, V domains shown)", "VH": "EVQLVESGGGLVQSKGSLKLSCAASGFTFNTYAMNWVRQAPGKGLEWVGRIRSKYNNYVTYYGDSVKDRFTISRDDSQSMLYLQMNNLKTEDTAMYYCVRQGRGSYAMDYWGQGTSVTVSS", "VL": "NIVMTQSPKSMSMSVGERVTLSCKASENVGTYVSWYQQKPEQSPKLLIYGASNRYTGVPDRFIGSGSATDFTLTIRSVQAEDLADYHCGQSYSYPTFGAGTKLELKR", "notes": "also called mAb2F1; 2F1"}}, "key": {"[1]": {"target": "T1, LRP6E3E4-His (human, UniProt O75581 631-1244)", "T1 construct": "Expressed in E. coli BL21(DE3); Only its E3E4 part stood in the assay; also called E3E4 domain of LRP6; not shown: His tag from pET28b+", "T1 sequence": "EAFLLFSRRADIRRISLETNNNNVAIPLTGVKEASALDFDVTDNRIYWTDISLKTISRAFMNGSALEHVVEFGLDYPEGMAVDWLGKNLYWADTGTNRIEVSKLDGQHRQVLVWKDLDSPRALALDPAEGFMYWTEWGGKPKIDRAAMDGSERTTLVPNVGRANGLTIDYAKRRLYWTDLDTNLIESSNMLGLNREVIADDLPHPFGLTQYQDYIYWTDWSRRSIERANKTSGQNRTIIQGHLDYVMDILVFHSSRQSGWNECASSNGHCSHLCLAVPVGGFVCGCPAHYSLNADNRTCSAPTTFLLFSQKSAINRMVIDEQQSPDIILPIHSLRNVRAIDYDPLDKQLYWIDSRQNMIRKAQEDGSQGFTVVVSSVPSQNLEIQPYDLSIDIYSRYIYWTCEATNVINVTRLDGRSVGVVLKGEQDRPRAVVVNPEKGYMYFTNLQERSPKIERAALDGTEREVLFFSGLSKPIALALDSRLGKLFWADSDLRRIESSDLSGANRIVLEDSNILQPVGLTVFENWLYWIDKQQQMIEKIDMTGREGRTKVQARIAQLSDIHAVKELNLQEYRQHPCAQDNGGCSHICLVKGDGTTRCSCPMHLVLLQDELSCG", "assay": "Western blot, purified recombinant fragment", "experimental": "(§1) FIG. 15 illustrates specificity of Anti-LRP6-1 on LRP6 ectodomain. A: HEK-293T cells were separately transfected with plasmids expressing LRP5-Flag and LRP6-Myc, with an empty vector as control. Forty-eight hours post-transfection, total cell lysates (50 μg) were applied for Western blot analysis using Anti-LRP6-1 and an anti-Flag antibody (M2). B: The ability of Anti-LRP6-1 to recognize endogenous LRP6 in different species. Total cell lysates (50 μg) from each cell line were applied for Western blot analysis using Anti-LRP6-1. C: Conditioned media containing LDLRN-Myc, LRP5N-Myc and LRP6N-Myc, and purified recombinant peptides of VLDLR-N-His, LRP6E1E2-His and LRP6E3E4-His were loaded for Western blot analysis using Anti-LRP6-1, anti-His and anti-Myc antibodies. D: Immuno-localization of LRP6 in the retinal cryosections. FITC-labeled Anti-LRP6-1 was used to determine the cellular localization of LRP6 in the retinas of rats (D1-D6) and mice (D7-D12). Non-specific mouse IgG was labeled with FITC and used as a negative control (D1, D4, D7, D10). The sections were stained with FITC-Anti-LRP6-1 (D2, D5, D8, D11). FITC-Anti-LRP6-1 pre-absorbed with 10 μg/ml purified LRP6E1E2-His antigen was used for staining to confirm the specificity of the immunosignals of LRP6 (D3, D6, D9, D12)."}, "[2]": {"target": "T2, LRP5-Flag (human full-length LRP5) (human, UniProt O75197 32-1615)", "T2 construct": "Tested as total lysate of transfected HEK-293T cells in a Western blot; not shown: Flag tag", "T2 sequence (O75197 32-1615 limits assumed)": "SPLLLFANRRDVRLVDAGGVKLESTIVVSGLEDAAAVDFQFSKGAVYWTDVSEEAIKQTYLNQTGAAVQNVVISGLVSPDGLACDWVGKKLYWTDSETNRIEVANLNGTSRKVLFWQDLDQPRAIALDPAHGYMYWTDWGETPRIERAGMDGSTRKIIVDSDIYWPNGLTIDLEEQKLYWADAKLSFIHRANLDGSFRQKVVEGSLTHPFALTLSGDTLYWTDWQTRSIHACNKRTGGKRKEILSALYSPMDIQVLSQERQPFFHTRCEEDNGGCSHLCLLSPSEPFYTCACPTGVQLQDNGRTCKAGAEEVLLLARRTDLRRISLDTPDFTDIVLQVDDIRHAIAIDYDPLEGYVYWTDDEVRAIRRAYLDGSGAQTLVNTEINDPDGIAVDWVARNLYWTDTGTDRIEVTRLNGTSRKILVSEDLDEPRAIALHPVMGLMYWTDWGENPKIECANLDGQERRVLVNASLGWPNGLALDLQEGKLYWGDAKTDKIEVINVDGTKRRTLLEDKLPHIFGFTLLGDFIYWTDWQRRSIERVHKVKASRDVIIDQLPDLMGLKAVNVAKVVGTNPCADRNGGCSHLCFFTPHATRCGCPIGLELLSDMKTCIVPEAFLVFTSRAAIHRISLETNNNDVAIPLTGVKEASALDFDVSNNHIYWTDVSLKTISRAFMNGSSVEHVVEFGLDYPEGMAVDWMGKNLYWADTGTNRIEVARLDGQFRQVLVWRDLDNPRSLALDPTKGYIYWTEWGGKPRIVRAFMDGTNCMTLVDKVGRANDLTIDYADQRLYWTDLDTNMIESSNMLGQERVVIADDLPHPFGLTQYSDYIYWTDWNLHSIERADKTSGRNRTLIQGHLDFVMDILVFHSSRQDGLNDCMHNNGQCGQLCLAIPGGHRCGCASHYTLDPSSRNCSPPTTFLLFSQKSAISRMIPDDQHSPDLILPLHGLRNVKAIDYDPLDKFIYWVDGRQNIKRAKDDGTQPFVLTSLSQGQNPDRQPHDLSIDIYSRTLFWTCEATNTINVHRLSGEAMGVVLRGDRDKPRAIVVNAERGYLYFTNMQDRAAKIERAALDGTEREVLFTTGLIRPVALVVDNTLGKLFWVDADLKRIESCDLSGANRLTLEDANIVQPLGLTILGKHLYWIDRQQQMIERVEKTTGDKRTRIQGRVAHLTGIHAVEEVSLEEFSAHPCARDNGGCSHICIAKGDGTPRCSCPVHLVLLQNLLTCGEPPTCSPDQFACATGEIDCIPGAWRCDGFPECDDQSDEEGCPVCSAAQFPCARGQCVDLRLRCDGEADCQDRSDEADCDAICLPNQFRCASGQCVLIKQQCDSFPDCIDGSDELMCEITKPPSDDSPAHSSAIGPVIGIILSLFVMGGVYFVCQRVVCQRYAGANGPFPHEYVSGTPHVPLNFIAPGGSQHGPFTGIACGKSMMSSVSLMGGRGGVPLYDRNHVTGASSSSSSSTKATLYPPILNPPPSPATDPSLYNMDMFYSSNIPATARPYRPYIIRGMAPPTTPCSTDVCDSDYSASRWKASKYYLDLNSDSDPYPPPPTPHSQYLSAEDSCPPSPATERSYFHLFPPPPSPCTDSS", "assay": "Western blot, total lysates (50 ug) of transfected HEK-293T cells", "experimental": "as §1, with “A: HEK-293T” for “FIG. 15 illustrates specificity of Anti-LRP6-1 on LRP6 ectodomain. A: HEK-293T”, “D9, D12). […]” for “D9, D12).”"}, "[3]": {"target": "endogenous human LRP6 (human, UniProt O75581 20-1613)", "sequence (O75581 20-1613 limits assumed)": "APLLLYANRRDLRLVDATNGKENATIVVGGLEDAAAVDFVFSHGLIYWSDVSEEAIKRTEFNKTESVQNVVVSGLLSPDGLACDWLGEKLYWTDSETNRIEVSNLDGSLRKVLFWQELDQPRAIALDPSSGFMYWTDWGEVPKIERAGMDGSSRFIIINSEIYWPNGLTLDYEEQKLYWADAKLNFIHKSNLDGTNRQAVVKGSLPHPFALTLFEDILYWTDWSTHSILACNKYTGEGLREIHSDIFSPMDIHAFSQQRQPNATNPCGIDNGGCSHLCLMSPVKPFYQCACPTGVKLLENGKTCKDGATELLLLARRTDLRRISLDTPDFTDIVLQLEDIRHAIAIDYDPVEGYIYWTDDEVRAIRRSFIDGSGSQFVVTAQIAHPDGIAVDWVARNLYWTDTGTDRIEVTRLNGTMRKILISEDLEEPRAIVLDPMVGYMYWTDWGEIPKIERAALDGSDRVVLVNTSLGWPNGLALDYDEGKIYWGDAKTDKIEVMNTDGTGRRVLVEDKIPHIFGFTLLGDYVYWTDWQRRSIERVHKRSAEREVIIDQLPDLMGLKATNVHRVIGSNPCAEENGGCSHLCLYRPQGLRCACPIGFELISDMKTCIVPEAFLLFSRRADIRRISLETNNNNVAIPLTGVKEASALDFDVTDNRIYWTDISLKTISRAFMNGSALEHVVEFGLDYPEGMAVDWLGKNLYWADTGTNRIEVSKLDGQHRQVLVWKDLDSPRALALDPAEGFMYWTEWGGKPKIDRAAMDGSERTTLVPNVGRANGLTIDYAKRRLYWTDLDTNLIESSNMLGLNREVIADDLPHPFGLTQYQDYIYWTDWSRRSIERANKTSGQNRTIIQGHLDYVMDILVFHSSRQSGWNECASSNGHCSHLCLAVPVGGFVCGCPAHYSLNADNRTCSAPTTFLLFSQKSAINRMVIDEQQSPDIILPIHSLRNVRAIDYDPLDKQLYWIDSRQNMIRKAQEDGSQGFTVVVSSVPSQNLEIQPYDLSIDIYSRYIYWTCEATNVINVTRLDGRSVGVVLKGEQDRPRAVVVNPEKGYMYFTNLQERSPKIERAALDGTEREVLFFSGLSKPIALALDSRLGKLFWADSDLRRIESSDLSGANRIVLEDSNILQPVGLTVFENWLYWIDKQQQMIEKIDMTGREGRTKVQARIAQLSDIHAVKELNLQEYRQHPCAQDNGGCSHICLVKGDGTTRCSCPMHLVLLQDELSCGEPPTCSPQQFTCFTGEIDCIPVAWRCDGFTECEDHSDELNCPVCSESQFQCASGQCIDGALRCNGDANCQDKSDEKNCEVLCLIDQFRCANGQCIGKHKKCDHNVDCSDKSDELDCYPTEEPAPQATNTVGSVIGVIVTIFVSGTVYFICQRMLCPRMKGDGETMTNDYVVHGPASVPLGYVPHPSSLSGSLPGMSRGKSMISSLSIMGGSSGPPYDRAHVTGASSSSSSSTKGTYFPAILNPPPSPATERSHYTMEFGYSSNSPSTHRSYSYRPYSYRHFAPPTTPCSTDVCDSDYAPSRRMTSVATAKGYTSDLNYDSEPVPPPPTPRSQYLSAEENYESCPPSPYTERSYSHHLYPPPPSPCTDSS", "assay": "cell-based or functional assay"}, "[4]": {"target": "T3, endogenous mouse LRP6 (mouse, UniProt O88572 20-1613)", "T3 construct": "whole, on cells; Tested as total cell lysate (Western blot) and in mouse retinal cryosections (immunostaining); also called LRP6 (mouse)", "T3 sequence (O88572 20-1613)": "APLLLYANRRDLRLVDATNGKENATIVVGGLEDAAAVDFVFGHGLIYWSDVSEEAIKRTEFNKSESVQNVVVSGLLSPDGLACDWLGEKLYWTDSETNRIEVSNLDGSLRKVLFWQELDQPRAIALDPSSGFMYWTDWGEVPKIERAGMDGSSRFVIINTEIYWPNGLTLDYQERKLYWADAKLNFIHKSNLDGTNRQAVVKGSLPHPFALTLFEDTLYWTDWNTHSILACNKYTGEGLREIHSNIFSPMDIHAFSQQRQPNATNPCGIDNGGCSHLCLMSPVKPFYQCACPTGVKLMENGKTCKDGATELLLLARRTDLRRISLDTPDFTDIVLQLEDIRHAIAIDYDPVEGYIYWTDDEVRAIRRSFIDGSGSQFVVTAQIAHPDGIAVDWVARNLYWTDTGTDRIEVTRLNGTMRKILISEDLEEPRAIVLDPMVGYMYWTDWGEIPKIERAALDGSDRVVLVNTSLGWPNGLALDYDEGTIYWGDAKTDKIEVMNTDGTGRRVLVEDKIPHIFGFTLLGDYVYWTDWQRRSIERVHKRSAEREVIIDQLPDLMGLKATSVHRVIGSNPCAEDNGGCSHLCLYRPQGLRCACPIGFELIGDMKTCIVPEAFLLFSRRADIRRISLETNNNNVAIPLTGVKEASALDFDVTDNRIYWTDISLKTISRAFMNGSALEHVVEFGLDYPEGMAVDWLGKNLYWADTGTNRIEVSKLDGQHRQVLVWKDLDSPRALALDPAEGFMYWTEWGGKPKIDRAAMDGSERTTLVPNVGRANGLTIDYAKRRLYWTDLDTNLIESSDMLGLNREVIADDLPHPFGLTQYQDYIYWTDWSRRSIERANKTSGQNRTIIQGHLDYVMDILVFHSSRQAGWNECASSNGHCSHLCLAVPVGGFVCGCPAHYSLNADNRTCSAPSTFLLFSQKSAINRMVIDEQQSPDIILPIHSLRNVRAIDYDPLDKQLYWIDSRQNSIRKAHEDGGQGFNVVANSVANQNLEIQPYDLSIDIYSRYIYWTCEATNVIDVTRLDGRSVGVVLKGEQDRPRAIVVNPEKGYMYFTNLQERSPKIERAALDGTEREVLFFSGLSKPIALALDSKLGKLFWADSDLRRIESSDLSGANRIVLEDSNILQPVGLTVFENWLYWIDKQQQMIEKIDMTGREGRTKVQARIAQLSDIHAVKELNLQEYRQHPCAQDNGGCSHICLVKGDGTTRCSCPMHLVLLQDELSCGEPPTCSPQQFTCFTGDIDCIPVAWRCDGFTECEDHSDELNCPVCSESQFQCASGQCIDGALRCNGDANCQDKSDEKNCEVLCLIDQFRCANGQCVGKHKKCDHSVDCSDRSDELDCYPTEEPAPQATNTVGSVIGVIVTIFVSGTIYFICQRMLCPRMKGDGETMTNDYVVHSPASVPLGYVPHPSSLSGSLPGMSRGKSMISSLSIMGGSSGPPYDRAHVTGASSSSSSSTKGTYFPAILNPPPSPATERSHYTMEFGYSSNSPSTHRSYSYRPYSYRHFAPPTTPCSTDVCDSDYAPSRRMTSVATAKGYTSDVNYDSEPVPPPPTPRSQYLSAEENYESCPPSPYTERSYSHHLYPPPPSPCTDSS", "assay": "Western blot, total cell lysates", "experimental": "as §1, with “A: HEK-293T” for “FIG. 15 illustrates specificity of Anti-LRP6-1 on LRP6 ectodomain. A: HEK-293T”, “D9, D12). […]” for “D9, D12).”"}, "[5]": {"target": "endogenous bovine LRP6 (bovine)", "assay": "cell-based or functional assay"}, "[6]": {"target": "T4, VLDLR-N-His (human, UniProt P98155 28-797, limits assumed)", "T4 construct": "domain: VLDLR-N; also called very low-density lipoprotein receptor; not shown: 6x histidine tag", "assay": "Western blot, recombinant VLDLR-N-His", "experimental": "as §1"}}}
{"binder": "B1", "values": [{"measurement": "binding result", "setting": "[1]", "value": "no binding"}, {"measurement": "binding result", "setting": "[2]", "value": "no binding"}, {"measurement": "EC50 of inhibition of Wnt1-induced TOPFLASH activity (hTERT-RPE cells)", "setting": "[3]", "value": "~20", "unit": "µg/mL"}, {"measurement": "EC50 of suppression of Wnt3A-induced Luciferase activity (TOPFLASH, hTERT-RPE cells)", "setting": "[3]", "value": "~20", "unit": "µg/mL"}, {"measurement": "binding result", "setting": "[4]", "value": "binds"}, {"measurement": "IC50 of inhibition of LRP6 phosphorylation (Wnt3a-containing medium, RCEC, Western blot)", "setting": "[5]", "value": "210 to 440", "unit": "nM"}, {"measurement": "IC50 of inhibition of [14C]thymidine incorporation into RCEC (proliferation, 1% O2)", "setting": "[5]", "value": "500 to 2000", "unit": "nM"}, {"measurement": "binding result", "setting": "[6]", "value": "no binding"}]}
